Data reported in publication PMC9638935 (Nucleic Acids Research, 2022).

Columns and labels:
[1] = target: T1, Cbp80 (tag not named for Figures 4C-D and 5D) (S. cerevisiae, UniProt P34160 1-861); assay: co-IP
T1 sequence (looked up): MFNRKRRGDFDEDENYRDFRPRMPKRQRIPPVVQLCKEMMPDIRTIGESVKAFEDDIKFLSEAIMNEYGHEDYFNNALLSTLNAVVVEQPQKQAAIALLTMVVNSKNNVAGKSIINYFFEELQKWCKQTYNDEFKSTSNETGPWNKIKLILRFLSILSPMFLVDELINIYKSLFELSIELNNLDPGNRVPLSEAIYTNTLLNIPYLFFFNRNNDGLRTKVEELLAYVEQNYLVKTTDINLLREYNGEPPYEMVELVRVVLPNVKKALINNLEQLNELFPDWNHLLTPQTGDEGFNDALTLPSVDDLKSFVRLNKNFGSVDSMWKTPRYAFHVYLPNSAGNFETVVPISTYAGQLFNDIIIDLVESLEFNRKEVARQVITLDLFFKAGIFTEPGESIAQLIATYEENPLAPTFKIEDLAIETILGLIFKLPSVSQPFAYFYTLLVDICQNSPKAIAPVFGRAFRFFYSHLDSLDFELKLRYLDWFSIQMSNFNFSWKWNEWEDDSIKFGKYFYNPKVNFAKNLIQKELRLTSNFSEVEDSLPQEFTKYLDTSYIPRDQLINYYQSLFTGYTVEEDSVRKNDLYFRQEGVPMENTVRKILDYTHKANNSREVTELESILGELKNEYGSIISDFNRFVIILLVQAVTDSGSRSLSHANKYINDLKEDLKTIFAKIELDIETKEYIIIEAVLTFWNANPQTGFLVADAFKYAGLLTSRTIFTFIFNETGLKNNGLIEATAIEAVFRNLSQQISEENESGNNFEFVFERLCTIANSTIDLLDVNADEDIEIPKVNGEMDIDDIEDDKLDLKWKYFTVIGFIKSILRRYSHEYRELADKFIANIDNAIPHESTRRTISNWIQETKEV

[2] = target: T2, Mex67 (S. cerevisiae, UniProt Q99257 1-599); assay: co-IP
T2 sequence (looked up): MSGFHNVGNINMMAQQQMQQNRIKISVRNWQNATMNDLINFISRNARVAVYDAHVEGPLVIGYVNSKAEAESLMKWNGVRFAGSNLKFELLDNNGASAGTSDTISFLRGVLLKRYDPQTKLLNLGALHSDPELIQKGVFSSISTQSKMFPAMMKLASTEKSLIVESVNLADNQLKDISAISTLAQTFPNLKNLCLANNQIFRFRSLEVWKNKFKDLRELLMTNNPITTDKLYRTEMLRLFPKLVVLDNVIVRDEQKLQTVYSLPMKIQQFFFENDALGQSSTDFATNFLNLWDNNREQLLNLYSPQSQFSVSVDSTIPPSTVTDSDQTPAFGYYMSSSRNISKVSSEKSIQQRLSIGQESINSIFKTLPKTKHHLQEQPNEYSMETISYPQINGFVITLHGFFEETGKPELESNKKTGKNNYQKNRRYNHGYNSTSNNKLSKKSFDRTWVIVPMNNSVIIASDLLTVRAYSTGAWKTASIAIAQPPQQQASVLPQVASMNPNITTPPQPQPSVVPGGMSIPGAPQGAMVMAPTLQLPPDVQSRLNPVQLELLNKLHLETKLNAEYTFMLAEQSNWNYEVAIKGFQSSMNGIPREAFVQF

- co-IP signal in cet1-2 relative to wild type [1]: ~60%
- drop of the co-IP signal in cet1-2 and rat1-1 cells relative to wild type [2]: ~20%
B1: Npl3 (natural protein, S. cerevisiae, UniProt Q01560 1-414, looked up)
chain: MSEAQETHVEQLPESVVDAPVEEQHQEPPQAPDAPQEPQVPQESAPQESAPQEPPAPQEQNDVPPPSNAPIYEGEESHSVQDYQEAHQHHQPPEPQPYYPPPPPGEHMHGRPPMHHRQEGELSNTRLFVRPFPLDVQESELNEIFGPFGPMKEVKILNGFAFVEFEEAESAAKAIEEVHGKSFANQPLEVVYSKLPAKRYRITMKNLPEGCSWQDLKDLARENSLETTFSSVNTRDFDGTGALEFPSEEILVEALERLNNIEFRGSVITVERDDNPPPIRRSNRGGFRGRGGFRGGFRGGFRGGFSRGGFGGPRGGFGGPRGGYGGYSRGGYGGYSRGGYGGSRGGYDSPRGGYDSPRGGYSRGGYGGPRNDYGPPRGSYGGSRGGYDGPRGDYGPPRDAYRTRDAPRERSPTR
